Stoichiometry N data for one molecule are collected here from publication PMC5913291.

The target in this assay is T1, Interferon regulatory factor 3 (IRF-3) (human (endogenous in HEK293T)), Q14653.
T1 chain: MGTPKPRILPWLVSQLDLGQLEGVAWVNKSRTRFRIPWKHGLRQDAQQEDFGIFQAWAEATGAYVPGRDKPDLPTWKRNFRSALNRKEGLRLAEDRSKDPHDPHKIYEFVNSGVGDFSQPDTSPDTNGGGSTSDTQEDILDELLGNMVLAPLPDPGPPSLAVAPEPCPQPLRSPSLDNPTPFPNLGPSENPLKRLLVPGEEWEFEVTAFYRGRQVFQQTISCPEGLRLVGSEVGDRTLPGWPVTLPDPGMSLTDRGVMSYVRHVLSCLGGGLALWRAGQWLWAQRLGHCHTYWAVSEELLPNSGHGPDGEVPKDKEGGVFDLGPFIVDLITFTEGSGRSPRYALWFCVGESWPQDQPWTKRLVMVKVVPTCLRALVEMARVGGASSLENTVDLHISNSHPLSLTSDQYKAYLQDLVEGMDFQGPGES
Nature of the assay: native gel or EMSA; lysates of HEK293T cells transfected with HCV 3'-UTR RNA, left untreated or treated with 2.5 mM cFP, 12 h post-transfection; native PAGE and immunoblot for IRF-3 dimers. The settings on record: remark: other sources report otherwise. Background: A gel shift assay detects complexes by their altered migration in electrophoresis.

B1: Interferon regulatory factor 3 (IRF-3), Q14653 1-427 (natural protein)
chain: T1 chain
Broadly, the stoichiometry N is a count of units in the complex or per binding partner. The molecule B1 gave a stoichiometry N of 2.
